What was measured:
[1] = biological target: fHbp subfamily A (Neisseria meningitidis) (UniProt Q9JXV4); conditions: cited from earlier work
[2] = biological target: fHbp subfamily B (Neisseria meningitidis) (UniProt Q9JXV4); conditions: cited from earlier work
[3] = biological target: fHbp_10 (1.P10), factor H binding protein with aspartic acid at position 184 (Neisseria meningitidis) (UniProt E6MV22); assay: SPR; ProteOn XPR36 (BioRad); fHbp immobilized on a ProteOn GLM sensor chip; increasing concentrations of fH67 injected at 40 µl/min, dissociation 300 seconds; KD calculated with ProteOn manager software; average KD
[4] = biological target: fHbp_10 (1.P10) with D184 replaced by K184 (Neisseria meningitidis); assay: as above

factor H, sequence (P08603 19-1231): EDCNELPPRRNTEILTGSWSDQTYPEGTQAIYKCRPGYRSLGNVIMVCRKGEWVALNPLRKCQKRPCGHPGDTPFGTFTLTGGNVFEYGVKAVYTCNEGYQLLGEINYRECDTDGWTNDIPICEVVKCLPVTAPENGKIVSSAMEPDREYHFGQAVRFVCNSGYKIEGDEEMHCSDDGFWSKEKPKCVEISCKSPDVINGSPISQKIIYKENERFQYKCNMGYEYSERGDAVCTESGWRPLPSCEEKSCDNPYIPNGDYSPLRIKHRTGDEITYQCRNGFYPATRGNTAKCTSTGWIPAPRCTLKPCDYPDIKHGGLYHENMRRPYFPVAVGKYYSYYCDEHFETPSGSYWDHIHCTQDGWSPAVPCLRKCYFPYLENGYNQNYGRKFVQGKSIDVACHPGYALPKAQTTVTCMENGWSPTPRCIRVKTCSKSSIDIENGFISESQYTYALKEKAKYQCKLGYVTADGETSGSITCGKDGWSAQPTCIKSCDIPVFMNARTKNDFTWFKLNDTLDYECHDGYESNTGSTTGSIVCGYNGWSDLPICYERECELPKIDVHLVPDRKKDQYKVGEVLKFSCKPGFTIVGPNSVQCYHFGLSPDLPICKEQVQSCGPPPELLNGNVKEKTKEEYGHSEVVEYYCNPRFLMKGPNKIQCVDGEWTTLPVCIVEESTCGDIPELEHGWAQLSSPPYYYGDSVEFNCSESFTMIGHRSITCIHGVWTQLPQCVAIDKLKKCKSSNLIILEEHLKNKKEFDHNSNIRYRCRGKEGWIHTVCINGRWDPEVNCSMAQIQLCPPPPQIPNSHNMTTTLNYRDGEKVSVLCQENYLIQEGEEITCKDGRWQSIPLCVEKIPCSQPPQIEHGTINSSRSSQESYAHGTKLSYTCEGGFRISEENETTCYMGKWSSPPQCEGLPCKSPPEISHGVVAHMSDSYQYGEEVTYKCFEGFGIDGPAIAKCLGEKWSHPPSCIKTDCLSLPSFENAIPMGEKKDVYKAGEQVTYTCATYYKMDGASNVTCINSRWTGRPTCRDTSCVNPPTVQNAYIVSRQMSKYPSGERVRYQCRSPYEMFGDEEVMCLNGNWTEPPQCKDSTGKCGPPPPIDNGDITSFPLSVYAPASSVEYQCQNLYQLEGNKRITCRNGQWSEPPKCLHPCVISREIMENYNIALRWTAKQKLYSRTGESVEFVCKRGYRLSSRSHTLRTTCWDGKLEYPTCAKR
fHbp subfamily A (Neisseria meningitidis), sequence (Q9JXV4 20-274): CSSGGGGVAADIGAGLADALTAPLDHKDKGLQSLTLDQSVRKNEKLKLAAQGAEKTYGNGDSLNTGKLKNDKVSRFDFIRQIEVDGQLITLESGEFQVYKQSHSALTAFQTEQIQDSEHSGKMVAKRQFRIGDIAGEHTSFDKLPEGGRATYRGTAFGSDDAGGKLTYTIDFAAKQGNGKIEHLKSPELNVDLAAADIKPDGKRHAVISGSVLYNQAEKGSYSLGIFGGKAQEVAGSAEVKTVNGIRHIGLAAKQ
fHbp subfamily B (Neisseria meningitidis), sequence (Q9JXV4 20-274): as above
fHbp_10 (1.P10), factor H binding protein with aspartic acid at position 184 (Neisseria meningitidis), sequence (E6MV22 20-274): as the sequence (Q9JXV4 20-274) above

Row | Substance | Kd [1] [nM] | Kd [2] [nM] | Kd [3] [nM] | Kd [4] [nM]
1 | factor H (from UniProt P08603) | 29 | 153 |  | 
2 | recombinant purified human fH (SCR67) (from UniProt P08603 19-1231) (domain or fragment) |  |  | 17.4 | 26
